Experimental findings from article doi:10.1101/2020.05.01.070730 (bioRxiv, 2020) are described below.

Residue numbers refer to the chain shown, from its start.

T1: MutS R842E (Pseudomonas aeruginosa, UniProt Q9HY08 1-855, R842E)
T1 sequence: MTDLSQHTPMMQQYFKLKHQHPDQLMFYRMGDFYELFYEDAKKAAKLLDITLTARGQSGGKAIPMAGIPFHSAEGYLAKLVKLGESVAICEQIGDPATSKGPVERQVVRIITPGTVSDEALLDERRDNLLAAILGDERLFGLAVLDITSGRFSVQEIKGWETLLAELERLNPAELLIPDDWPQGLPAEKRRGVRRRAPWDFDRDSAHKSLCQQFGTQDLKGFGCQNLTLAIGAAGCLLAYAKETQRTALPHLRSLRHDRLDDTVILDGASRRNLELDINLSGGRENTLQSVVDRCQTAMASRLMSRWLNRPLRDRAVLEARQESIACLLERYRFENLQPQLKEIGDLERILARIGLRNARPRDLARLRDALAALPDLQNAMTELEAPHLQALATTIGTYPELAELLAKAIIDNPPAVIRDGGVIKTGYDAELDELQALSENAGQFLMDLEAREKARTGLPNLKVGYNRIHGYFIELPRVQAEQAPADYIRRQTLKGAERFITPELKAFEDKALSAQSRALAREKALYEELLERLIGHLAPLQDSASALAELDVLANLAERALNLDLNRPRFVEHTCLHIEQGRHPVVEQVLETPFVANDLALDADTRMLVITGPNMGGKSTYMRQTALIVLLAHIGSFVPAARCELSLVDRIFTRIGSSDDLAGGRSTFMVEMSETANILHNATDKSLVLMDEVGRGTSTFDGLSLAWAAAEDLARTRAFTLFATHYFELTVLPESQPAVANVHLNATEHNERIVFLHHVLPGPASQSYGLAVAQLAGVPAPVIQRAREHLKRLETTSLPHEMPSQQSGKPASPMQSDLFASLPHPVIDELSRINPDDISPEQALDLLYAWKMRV

T2: MutS (Pseudomonas aeruginosa, UniProt Q9HY08 1-855)
T2 sequence: T1 sequence with E842R

B1: GT-pDNA 13 nt (dsDNA)
DNA 1: ATGTGAATCAGTATGGTTGCTATCTGCTGAAG
DNA 2: ATTTCCTTCAGCAGATAGTAACCATACTGATTCACAT
B2: CC-pDNA (dsDNA)
DNA 1: ATGTGAATCAGTATGGTTCCTATCTGC
DNA 2: B1 DNA 2 with T19C
B3: TC-pDNA (dsDNA)
DNA 1: ATGTGAATCAGTATGGTTTCTATCTGC
DNA 2: B1 DNA 2 with T19C
B4: GA-pDNA (dsDNA)
DNA 1: ATGTGAATCAGTATGGTTGCTATCTGC
DNA 2: B1 DNA 2 with T19A
B5: GG-pDNA (dsDNA)
DNA 1: ATGTGAATCAGTATGGTTGCTATCTGC
DNA 2: B1 DNA 2 with T19G
B6: CT-pDNA (dsDNA)
DNA 1: ATGTGAATCAGTATGGTTCCTATCTGC
DNA 2: B1 DNA 2
B7: AC-pDNA (dsDNA)
DNA 1: ATGTGAATCAGTATGGTTACTATCTGC
DNA 2: B1 DNA 2 with T19C
B8: TG-pDNA (dsDNA)
DNA 1: ATGTGAATCAGTATGGTTTCTATCTGC
DNA 2: B1 DNA 2 with T19G
B9: TT-pDNA (dsDNA)
DNA 1: ATGTGAATCAGTATGGTTTCTATCTGC
DNA 2: B1 DNA 2
B10: CA-pDNA (dsDNA)
DNA 1: ATGTGAATCAGTATGGTTCCTATCTGC
DNA 2: B1 DNA 2 with T19A

For the first data set, the target named is T1, MutS R842E. Briefly: native PAGE shift.
Take B1: the binding result is “binds”.

The next data set has as its target T2, MutS. Briefly: native PAGE shift.
As to B1, the binding result was “binds”. The same measure, in the same setting: the value for B2 was “binds”. For B3, the binding result is given as “binds”.

B4: the binding result is recorded as “binds”.

Consider B5, for which the binding result was “binds”.

A further data set addresses T2, MutS. Put plainly: native PAGE shift. This is another data set of the same source.
Consider B6, for which the binding result is listed as “binds”.

A further data set has as its target T2, MutS. Put plainly: native PAGE shift. The source holds these as a separate data set.
Consider B7, for which the binding result was “binds”.

For a further data set, the target named is T2, MutS. Put plainly: native PAGE shift. The source holds these as a separate data set.
Take B8: the binding result is listed as “binds”. The same measure, in the same setting: the value for B9 was “binds”. Same read-out and setting: in the case of B10 it was “binds”.

A further data set deals with T1, MutS R842E. Put plainly: native PAGE shift. This is another data set of the same source.
On to B2, for which the binding result was “binds”. On to B6, for which the binding result is on record as “binds”. Same read-out and setting: the value for B3 was “binds”; that for B4 was “binds”. On the same count and under the same terms, the value for B7 was “binds”; that for B5 was “binds”. B8: the binding result is listed as “binds”. On the same count and under the same terms, the value for B9 was “binds”.
